Drawing on article PMC8563728 (Nature Communications, 2021), this text covers Kd for one molecule.

Usually Kd stands for the constant that tells how readily two partners part at equilibrium. A higher Kd goes with weaker binding.

This test deals with SARS-CoV-2 S1 (SARS-CoV-2, wild type (Wuhan-Hu-1), UniProt P0DTC2). Kind of test: SPR. Conditions: both partners purified.

B1: 58G6 (antibody, V domains shown)
VH: QMQLVQSGPEVKKPGTSVKVSCKASGFTFSSSAVQWVRQARGQHLEWIGWIVVGSGNTNYAQKFQERVTLTRDMSTRTAYMELSSLRSEDTAVYYCAAPNCNSTTCHDGFDIWGQGTVVTVSS
VL: EIVLTQSPGTLSLSPGERATLSCRASQSVRSSYLGWYQQKPGQAPRLLIYGASSRATGIPDRFSGSGSGTDFTLTISRLESEDFAVYYCQQYDNSPWTFGQGTKVEIK
notes: also called 58G6 mAb; copies: 2 + 2
As to B1, binding was put at a Kd of 1.08 nM.
